Measurements from patent publication EP4613767 (dated 2025).
Each block holds one binder with its values, some of them ahead of it.

Columns and labels:
human CD3 (Jurkat cells) = molecular target: T1, human CD3 (Jurkat cells) (human, UniProt P07766); assay: FACS, Jurkat cells
T1 chain: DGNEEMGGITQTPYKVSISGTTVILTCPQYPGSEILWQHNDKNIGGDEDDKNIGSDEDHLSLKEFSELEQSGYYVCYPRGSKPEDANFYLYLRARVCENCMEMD

human GPC3 (HepG2 cells) = human GPC3 (HepG2 cells) (human, UniProt P51654); assay: FACS, HepG2 cells
human GPC3 protein = human GPC3 protein (human, UniProt P51654); assay: SPR
human CD3 E&D protein = molecular target: T2, human CD3 E&D protein (human, UniProt P07766); assay: SPR
T2 chain 1: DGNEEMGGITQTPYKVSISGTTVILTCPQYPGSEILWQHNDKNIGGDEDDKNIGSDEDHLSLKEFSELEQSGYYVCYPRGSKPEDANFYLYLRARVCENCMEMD
T2 chain 2: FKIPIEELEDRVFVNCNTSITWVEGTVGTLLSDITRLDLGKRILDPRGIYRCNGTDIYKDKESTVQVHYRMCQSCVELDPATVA

monkey CD3 E&D protein = molecular target: T3, monkey CD3 E&D protein (cynomolgus monkey, UniProt Q95LI5); assay: SPR
T3 chain 1: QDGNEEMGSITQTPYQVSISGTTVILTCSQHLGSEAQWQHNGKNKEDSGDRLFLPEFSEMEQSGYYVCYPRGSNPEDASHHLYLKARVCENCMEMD
T3 chain 2: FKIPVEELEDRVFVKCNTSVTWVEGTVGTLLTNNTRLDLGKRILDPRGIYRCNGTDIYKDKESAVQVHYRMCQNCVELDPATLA

Chain of human GPC3 (HepG2 cells) (P51654 25-554): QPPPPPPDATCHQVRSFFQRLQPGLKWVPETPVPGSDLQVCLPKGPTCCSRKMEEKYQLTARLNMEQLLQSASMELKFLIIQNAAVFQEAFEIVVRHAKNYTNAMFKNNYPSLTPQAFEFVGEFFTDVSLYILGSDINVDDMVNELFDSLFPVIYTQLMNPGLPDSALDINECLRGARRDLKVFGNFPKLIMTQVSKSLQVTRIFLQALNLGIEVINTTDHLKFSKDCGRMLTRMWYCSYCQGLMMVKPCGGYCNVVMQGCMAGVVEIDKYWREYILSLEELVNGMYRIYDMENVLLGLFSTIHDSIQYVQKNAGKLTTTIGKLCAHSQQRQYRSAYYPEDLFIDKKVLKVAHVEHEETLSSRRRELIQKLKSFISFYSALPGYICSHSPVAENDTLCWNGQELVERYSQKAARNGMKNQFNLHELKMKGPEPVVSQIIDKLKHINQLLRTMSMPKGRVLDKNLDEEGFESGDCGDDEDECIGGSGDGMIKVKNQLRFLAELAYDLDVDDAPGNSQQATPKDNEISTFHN
Chain of human GPC3 protein (P51654 25-554): as above

EC50 (human CD3 (Jurkat cells)): 23.9 nM
B1: G100 (anti-CD3 scFv arm) (antibody, V domains shown)
VH: EVKLVESGGGLVQPGGSLKLSCAASGFTFNTYAMNWVRQAPGKGLEWVARIRSKYNNYATYYADSVKDRFTISRDDAKNTLYLQMNNLRTEDTAVYYCVRHGNFGNSYVSWFAYWGQGTLVTVSS
VL: QAVVTQEPSLTVSPGGTVTLTCRSSTGAVTTSNYANWVQQKPGQAPRGLIGGTNKRAPGTPARFSGSLLGGKAALTLSGAQPEDEAEYYCALWYSNLWVFGGGTKLTVL

EC50 (human GPC3 (HepG2 cells)): 0.16 nM
Kd (human GPC3 protein): 5.42 nM
B2: G156 (anti-GPC3 VHH arm, two VHH copies, Format 2) (antibody, V domains shown)
VH: QVQLVESGGGVVQPGGSLRLSCAASGRTLTNYVMGWFRQAPGKEREIVAGINWAGSRIGYGDFVKGRFTISRDNSKNTVYLQMNSLRPEDTAVYYCAAKLGKYNYPEYDYRGQGTLVTVSS
VL: QAVVTQEPSLTVSPGGTVTLTCRSSTGAVTTSNYANWVQQKPGQAPRGLIGGTNKRAPGTPARFSGSLLGGKAALTLSGAQPEDEAEYYCALWYSNLWVFGGGTKLTVL

Kd (human CD3 E&D protein): 1.3 nM
B3: G156 (anti-CD3 scFv arm) (antibody, V domains shown)
VH: EVKLVESGGGLVQPGGSLKLSCAASGFTFNTYAMNWVRQAPGKGLEWVARIRSKYNNYATYYADSVKDRFTISRDDAKNTLYLQMNNLRTEDTAVYYCVRHGNFGNSYVSWFAYWGQGTLVTVSS
VL: QAVVTQEPSLTVSPGGTVTLTCRSSTGAVTTSNYANWVQQKPGQAPRGLIGGTNKRAPGTPARFSGSLLGGKAALTLSGAQPEDEAEYYCALWYSNLWVFGGGTKLTVL
modifications: Acro CDD-H52W1

Kd (monkey CD3 E&D protein): 5.66 nM
B4: G100 (anti-CD3 scFv arm) (antibody, V domains shown)
VH: EVKLVESGGGLVQPGGSLKLSCAASGFTFNTYAMNWVRQAPGKGLEWVARIRSKYNNYATYYADSVKDRFTISRDDAKNTLYLQMNNLRTEDTAVYYCVRHGNFGNSYVSWFAYWGQGTLVTVSS
VL: QAVVTQEPSLTVSPGGTVTLTCRSSTGAVTTSNYANWVQQKPGQAPRGLIGGTNKRAPGTPARFSGSLLGGKAALTLSGAQPEDEAEYYCALWYSNLWVFGGGTKLTVL
modifications: Acro CDD-C52W4

EC50 (human CD3 (Jurkat cells)): 27.4 nM
B5: G156 (anti-CD3 scFv arm) (antibody, V domains shown)
VH: EVKLVESGGGLVQPGGSLKLSCAASGFTFNTYAMNWVRQAPGKGLEWVARIRSKYNNYATYYADSVKDRFTISRDDAKNTLYLQMNNLRTEDTAVYYCVRHGNFGNSYVSWFAYWGQGTLVTVSS
VL: QAVVTQEPSLTVSPGGTVTLTCRSSTGAVTTSNYANWVQQKPGQAPRGLIGGTNKRAPGTPARFSGSLLGGKAALTLSGAQPEDEAEYYCALWYSNLWVFGGGTKLTVL

Kd (monkey CD3 E&D protein): 2.79 nM
B6: G156 (anti-CD3 scFv arm) (antibody, V domains shown)
VH: EVKLVESGGGLVQPGGSLKLSCAASGFTFNTYAMNWVRQAPGKGLEWVARIRSKYNNYATYYADSVKDRFTISRDDAKNTLYLQMNNLRTEDTAVYYCVRHGNFGNSYVSWFAYWGQGTLVTVSS
VL: QAVVTQEPSLTVSPGGTVTLTCRSSTGAVTTSNYANWVQQKPGQAPRGLIGGTNKRAPGTPARFSGSLLGGKAALTLSGAQPEDEAEYYCALWYSNLWVFGGGTKLTVL
modifications: Acro CDD-C52W4

Kd (human CD3 E&D protein): 3.49 nM
B7: G100 (anti-CD3 scFv arm) (antibody, V domains shown)
VH: EVKLVESGGGLVQPGGSLKLSCAASGFTFNTYAMNWVRQAPGKGLEWVARIRSKYNNYATYYADSVKDRFTISRDDAKNTLYLQMNNLRTEDTAVYYCVRHGNFGNSYVSWFAYWGQGTLVTVSS
VL: QAVVTQEPSLTVSPGGTVTLTCRSSTGAVTTSNYANWVQQKPGQAPRGLIGGTNKRAPGTPARFSGSLLGGKAALTLSGAQPEDEAEYYCALWYSNLWVFGGGTKLTVL
modifications: Acro CDD-H52W1

EC50 (human GPC3 (HepG2 cells)): 0.42 nM
Kd (human GPC3 protein): 8.36 nM
B8: G100 (anti-GPC3 VHH arm, monovalent, Format 1) (antibody, V domains shown)
VH: QVQLVESGGGVVQPGGSLRLSCAASGRTLTNYVMGWFRQAPGKEREIVAGINWAGSRIGYGDFVKGRFTISRDNSKNTVYLQMNSLRPEDTAVYYCAAKLGKYNYPEYDYRGQGTLVTVSS
VL: QAVVTQEPSLTVSPGGTVTLTCRSSTGAVTTSNYANWVQQKPGQAPRGLIGGTNKRAPGTPARFSGSLLGGKAALTLSGAQPEDEAEYYCALWYSNLWVFGGGTKLTVL
